The text below walks through data of patent US20240376151A1, “STAPLED PEPTIDES AND METHODS THEREOF” (FOG PHARMACEUTICALS, INC., priority 2022, published 2024).

Bridge positions count the residues as written; N and C are the ends.

For this assay, the target named is T1, PPIA (Homo sapiens, UniProt P62937).
T1 construct: Full length PPIA (residues 1-165) with an N-terminal 6×his-yBBR-TEV tag; 6×his-yBBR-TEV (N); made in house; host or cells: E. coli BL21 (DE3) CodonPlus RIPL
The assay is described as follows: Phage Library Screening with NGS, PPIA. The format is binding.

The mark [1] stands for this setting: target concentration 1000, first column.
The mark [2] stands for this setting: target concentration 1000, second column.

T1 sequence (P62937 whole entry, the tested form may be a part): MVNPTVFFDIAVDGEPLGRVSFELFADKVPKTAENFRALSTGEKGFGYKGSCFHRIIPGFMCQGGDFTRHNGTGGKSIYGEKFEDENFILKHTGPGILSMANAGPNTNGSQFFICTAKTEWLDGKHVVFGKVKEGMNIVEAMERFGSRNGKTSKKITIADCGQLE

Regarding DPARSDCHVAAYWCYHQ, the “phage screen counts, Target Concentration 10” value came to 0; the “phage screen counts, Target Concentration 30” value was determined as 0; the “phage screen counts, Target Concentration 100” value worked out at 4; the “phage screen counts, Target Concentration 300” value is recorded as 5. The “phage screen counts, Target Concentration 1000” value under setting [1] stood at 6. The “phage screen counts, Target Concentration 1000” value under setting [2] turned out to be 6.
As to DPARTDCHVAAYWCYHQ, the “phage screen counts, Target Concentration 10” value amounted to 0; the “phage screen counts, Target Concentration 30” value came to 5; the “phage screen counts, Target Concentration 100” value is 13; the “phage screen counts, Target Concentration 300” value was determined as 14. For the same sequence, the “phage screen counts, Target Concentration 1000” value under setting [1] is given as 18. Besides, the “phage screen counts, Target Concentration 1000” value under setting [2] was 25.
As for DPARYSCHVAAYECILN, the “phage screen counts, Target Concentration 10” value worked out at 0; the “phage screen counts, Target Concentration 30” value is on record as 0; the “phage screen counts, Target Concentration 100” value is on record as 17; the “phage screen counts, Target Concentration 300” value amounted to 14. Further, under setting [1], the “phage screen counts, Target Concentration 1000” value came to 41. For the same sequence, the “phage screen counts, Target Concentration 1000” value under setting [2] worked out at 27.
In the case of DPASYDCHVAAYFCNFA, the “phage screen counts, Target Concentration 10” value worked out at 6; the “phage screen counts, Target Concentration 30” value worked out at 10; the “phage screen counts, Target Concentration 100” value came out at 176; the “phage screen counts, Target Concentration 300” value is 197. Moreover, the “phage screen counts, Target Concentration 1000” value under setting [1] came out at 190. For the same sequence, the “phage screen counts, Target Concentration 1000” value under setting [2] is 227.
Take DPATMNCHVAAYFCIVE: the “phage screen counts, Target Concentration 10” value is 0; the “phage screen counts, Target Concentration 30” value was found to be 0; the “phage screen counts, Target Concentration 100” value was 10; the “phage screen counts, Target Concentration 300” value is 13. Besides, the “phage screen counts, Target Concentration 1000” value under setting [1] was 10. In addition, under setting [2], the “phage screen counts, Target Concentration 1000” value worked out at 19.
For DPAYYDCHIAAYFCRTQ, the “phage screen counts, Target Concentration 10” value is recorded as 16; the “phage screen counts, Target Concentration 30” value was found to be 62; the “phage screen counts, Target Concentration 100” value is on record as 77; the “phage screen counts, Target Concentration 300” value was 106. Also, the “phage screen counts, Target Concentration 1000” value under setting [1] worked out at 93. Besides, the “phage screen counts, Target Concentration 1000” value under setting [2] is recorded as 131.
With PDCHIAAWYCR, the “phage screen counts, Target Concentration 10” value is reported as 0; the “phage screen counts, Target Concentration 30” value is 0; the “phage screen counts, Target Concentration 100” value is 0; the “phage screen counts, Target Concentration 300” value came to 0. Moreover, the “phage screen counts, Target Concentration 1000” value under setting [1] turned out to be 11. The “phage screen counts, Target Concentration 1000” value under setting [2] was 10.
With PDCHIASWFCS, the “phage screen counts, Target Concentration 10” value is 0; the “phage screen counts, Target Concentration 30” value is listed as 0; the “phage screen counts, Target Concentration 100” value was 0; the “phage screen counts, Target Concentration 300” value was 3. In addition, the “phage screen counts, Target Concentration 1000” value under setting [1] came to 25. Also, the “phage screen counts, Target Concentration 1000” value under setting [2] is given as 5.
On to PDCHIQAYICH, for which the “phage screen counts, Target Concentration 10” value is listed as 0; the “phage screen counts, Target Concentration 30” value was 0; the “phage screen counts, Target Concentration 100” value is on record as 0; the “phage screen counts, Target Concentration 300” value was found to be 4. The “phage screen counts, Target Concentration 1000” value under setting [1] is reported as 6. For the same sequence, the “phage screen counts, Target Concentration 1000” value under setting [2] was determined as 35.
On to PDCHIRAYMCN, for which the “phage screen counts, Target Concentration 10” value was determined as 0; the “phage screen counts, Target Concentration 30” value is reported as 0; the “phage screen counts, Target Concentration 100” value came out at 0; the “phage screen counts, Target Concentration 300” value was 0. Moreover, the “phage screen counts, Target Concentration 1000” value under setting [1] was determined as 20. Under setting [2], the “phage screen counts, Target Concentration 1000” value was found to be 26.
On to “PDCHIRAYVCH (Ac-PDCHIRAYVCH-NH2; bridge 3-10; also: Cys-Cys staple, linker not named)”, for which the “phage screen counts, Target Concentration 10” value is listed as 0; the “phage screen counts, Target Concentration 30” value turned out to be 0; the “phage screen counts, Target Concentration 100” value was 1; the “phage screen counts, Target Concentration 300” value was determined as 8. The “phage screen counts, Target Concentration 1000” value under setting [1] came to 11. The “phage screen counts, Target Concentration 1000” value under setting [2] stood at 120.
PDCHIYAFYCL: the “phage screen counts, Target Concentration 10” value came out at 0; the “phage screen counts, Target Concentration 30” value stood at 0; the “phage screen counts, Target Concentration 100” value stood at 1; the “phage screen counts, Target Concentration 300” value is listed as 5. The “phage screen counts, Target Concentration 1000” value under setting [1] turned out to be 8. Further, under setting [2], the “phage screen counts, Target Concentration 1000” value was determined as 18.
With PDCHLNAYWCM, the “phage screen counts, Target Concentration 10” value worked out at 0; the “phage screen counts, Target Concentration 30” value came to 0; the “phage screen counts, Target Concentration 100” value is 1; the “phage screen counts, Target Concentration 300” value is on record as 47. Moreover, under setting [1], the “phage screen counts, Target Concentration 1000” value was determined as 47. Also, the “phage screen counts, Target Concentration 1000” value under setting [2] was found to be 115.
Turning to PDCHVAAWMCF, the “phage screen counts, Target Concentration 10” value worked out at 0; the “phage screen counts, Target Concentration 30” value stood at 0; the “phage screen counts, Target Concentration 100” value came out at 0; the “phage screen counts, Target Concentration 300” value was determined as 8. For the same sequence, under setting [1], the “phage screen counts, Target Concentration 1000” value was 16. Also, under setting [2], the “phage screen counts, Target Concentration 1000” value came to 26.
For PDCHVAAYICY, the “phage screen counts, Target Concentration 10” value is 0; the “phage screen counts, Target Concentration 30” value was determined as 0; the “phage screen counts, Target Concentration 100” value was found to be 3; the “phage screen counts, Target Concentration 300” value turned out to be 38. The “phage screen counts, Target Concentration 1000” value under setting [1] came out at 54. For the same sequence, under setting [2], the “phage screen counts, Target Concentration 1000” value is on record as 44.
With PECHVEAYFCE, the “phage screen counts, Target Concentration 10” value was found to be 0; the “phage screen counts, Target Concentration 30” value turned out to be 0; the “phage screen counts, Target Concentration 100” value was 0; the “phage screen counts, Target Concentration 300” value amounted to 0. For the same sequence, the “phage screen counts, Target Concentration 1000” value under setting [1] was 24. The “phage screen counts, Target Concentration 1000” value under setting [2] turned out to be 22.
On to PFCHIEAYYCW, for which the “phage screen counts, Target Concentration 10” value is 0; the “phage screen counts, Target Concentration 30” value is on record as 0; the “phage screen counts, Target Concentration 100” value is reported as 0; the “phage screen counts, Target Concentration 300” value worked out at 14. Under setting [1], the “phage screen counts, Target Concentration 1000” value was found to be 46. The “phage screen counts, Target Concentration 1000” value under setting [2] is on record as 22.
As to PHDCHVNAWYC, the “phage screen counts, Target Concentration 10” value is given as 0; the “phage screen counts, Target Concentration 30” value was 0; the “phage screen counts, Target Concentration 100” value turned out to be 0; the “phage screen counts, Target Concentration 300” value is 26. The “phage screen counts, Target Concentration 1000” value under setting [1] worked out at 21. Further, the “phage screen counts, Target Concentration 1000” value under setting [2] was found to be 45.
For the sequence PNCHLYAWECY, the “phage screen counts, Target Concentration 10” value came out at 0; the “phage screen counts, Target Concentration 30” value is recorded as 0; the “phage screen counts, Target Concentration 100” value was 0; the “phage screen counts, Target Concentration 300” value is reported as 4. For the same sequence, the “phage screen counts, Target Concentration 1000” value under setting [1] is given as 5. In addition, the “phage screen counts, Target Concentration 1000” value under setting [2] worked out at 19.
PNCHVEAWYCI: the “phage screen counts, Target Concentration 10” value is recorded as 0; the “phage screen counts, Target Concentration 30” value was 0; the “phage screen counts, Target Concentration 100” value is recorded as 0; the “phage screen counts, Target Concentration 300” value amounted to 1. Also, the “phage screen counts, Target Concentration 1000” value under setting [1] worked out at 12. For the same sequence, the “phage screen counts, Target Concentration 1000” value under setting [2] amounted to 12.
